The values below come from patent US20240132563A1 (BRIGHT PEAK THERAPEUTICS, published 2024).

Positions of bridges follow the written chain, without caps; N, C: chain ends. Non-standard residues stand in square brackets, D forms with d. Chains are numbered I, II in the order given. Ygp = tyrosine with amino-capped PEG8; Yn3 = tyrosine with azide-capped PEG9; hSer = N[C@@H](CCO)C(=O)O; Nle = CCCC[C@H](N)C(=O)O

For experiment [1], the target named is T1, IL-2Rβ (CD122), avi-tagged (UniProt P14784 27-239, limits assumed).
T1 construct: BLI ligand printed as 'CD122 (avi)'; also called IL-2 receptor beta subunit
T1 sequence (looked up): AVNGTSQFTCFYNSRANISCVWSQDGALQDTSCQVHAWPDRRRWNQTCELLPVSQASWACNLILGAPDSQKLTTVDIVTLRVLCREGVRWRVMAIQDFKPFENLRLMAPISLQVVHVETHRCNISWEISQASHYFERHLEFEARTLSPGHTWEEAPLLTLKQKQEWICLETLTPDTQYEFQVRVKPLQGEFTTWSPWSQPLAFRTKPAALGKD
Put plainly: BLI; ligand CD122 (avi). On the technique in general: BLI is a label-free optical method that tracks binding on a fibre tip over time.

Experiment [2] has as its target T2, IL-2Rβγ on HEK-Blue IL2Rβγ reporter cells (UniProt P14784 27-551; P31785 23-369).
T2 sequence (looked up) 1: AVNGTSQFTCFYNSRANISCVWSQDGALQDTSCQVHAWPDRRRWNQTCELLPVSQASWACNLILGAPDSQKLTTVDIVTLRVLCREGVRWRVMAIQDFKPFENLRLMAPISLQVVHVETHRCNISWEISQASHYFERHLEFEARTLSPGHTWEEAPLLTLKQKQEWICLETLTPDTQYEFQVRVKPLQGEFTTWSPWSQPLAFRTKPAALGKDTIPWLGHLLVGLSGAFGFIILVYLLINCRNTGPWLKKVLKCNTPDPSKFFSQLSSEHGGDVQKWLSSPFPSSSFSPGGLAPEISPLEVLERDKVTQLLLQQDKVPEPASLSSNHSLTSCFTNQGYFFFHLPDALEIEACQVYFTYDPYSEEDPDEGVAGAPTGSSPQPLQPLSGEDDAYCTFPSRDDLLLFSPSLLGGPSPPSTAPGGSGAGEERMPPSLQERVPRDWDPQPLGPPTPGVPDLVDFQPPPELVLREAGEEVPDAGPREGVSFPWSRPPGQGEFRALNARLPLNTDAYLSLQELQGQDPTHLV
T2 sequence (looked up) 2: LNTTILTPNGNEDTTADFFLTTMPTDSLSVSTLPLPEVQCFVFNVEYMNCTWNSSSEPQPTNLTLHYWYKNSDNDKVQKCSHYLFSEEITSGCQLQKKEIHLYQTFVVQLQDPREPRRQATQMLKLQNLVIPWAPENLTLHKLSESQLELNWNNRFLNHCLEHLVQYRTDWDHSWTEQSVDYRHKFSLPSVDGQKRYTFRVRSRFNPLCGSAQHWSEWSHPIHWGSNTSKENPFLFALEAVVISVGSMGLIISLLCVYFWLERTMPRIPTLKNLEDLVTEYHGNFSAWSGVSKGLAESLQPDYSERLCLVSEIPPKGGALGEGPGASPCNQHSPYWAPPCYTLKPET
Put plainly: cell-based or functional assay.

Experiment [3] concerns the target T3, CD218a (IL-18 receptor alpha subunit), avi-tagged (UniProt Q13478 19-329, limits assumed).
T3 construct: BLI ligand printed as 'CD218a (avi)'; also called CD218a (avi); IL-18Rα
T3 sequence (looked up): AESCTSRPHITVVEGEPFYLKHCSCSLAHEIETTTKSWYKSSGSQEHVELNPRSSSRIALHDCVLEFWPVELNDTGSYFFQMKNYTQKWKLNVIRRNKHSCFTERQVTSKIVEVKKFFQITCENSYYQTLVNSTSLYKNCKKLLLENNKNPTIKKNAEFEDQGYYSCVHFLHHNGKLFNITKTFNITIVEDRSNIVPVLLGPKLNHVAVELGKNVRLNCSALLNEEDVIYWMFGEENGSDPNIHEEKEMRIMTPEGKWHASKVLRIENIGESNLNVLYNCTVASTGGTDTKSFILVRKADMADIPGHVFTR
Nature of the experiment: BLI; ligand CD218a (avi).

Experiment [4] concerns the target T4, IL-18R on HEK-Blue IL18R reporter cells (UniProt Q13478 19-541; O95256 20-599, limits assumed).
T4 sequence (looked up) 1: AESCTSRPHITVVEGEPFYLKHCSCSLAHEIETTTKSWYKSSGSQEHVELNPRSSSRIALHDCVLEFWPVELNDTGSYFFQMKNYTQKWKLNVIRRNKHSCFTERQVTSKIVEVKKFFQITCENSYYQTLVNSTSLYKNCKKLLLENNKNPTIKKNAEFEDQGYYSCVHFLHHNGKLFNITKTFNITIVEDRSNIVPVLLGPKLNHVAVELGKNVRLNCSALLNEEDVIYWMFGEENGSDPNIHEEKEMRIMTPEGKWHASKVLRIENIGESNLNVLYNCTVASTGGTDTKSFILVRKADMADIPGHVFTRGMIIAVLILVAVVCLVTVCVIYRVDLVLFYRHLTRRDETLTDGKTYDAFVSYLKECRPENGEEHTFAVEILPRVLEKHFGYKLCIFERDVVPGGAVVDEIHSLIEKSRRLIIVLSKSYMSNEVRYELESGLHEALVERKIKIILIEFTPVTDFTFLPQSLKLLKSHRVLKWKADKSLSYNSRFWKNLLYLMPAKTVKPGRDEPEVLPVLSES
T4 sequence (looked up) 2: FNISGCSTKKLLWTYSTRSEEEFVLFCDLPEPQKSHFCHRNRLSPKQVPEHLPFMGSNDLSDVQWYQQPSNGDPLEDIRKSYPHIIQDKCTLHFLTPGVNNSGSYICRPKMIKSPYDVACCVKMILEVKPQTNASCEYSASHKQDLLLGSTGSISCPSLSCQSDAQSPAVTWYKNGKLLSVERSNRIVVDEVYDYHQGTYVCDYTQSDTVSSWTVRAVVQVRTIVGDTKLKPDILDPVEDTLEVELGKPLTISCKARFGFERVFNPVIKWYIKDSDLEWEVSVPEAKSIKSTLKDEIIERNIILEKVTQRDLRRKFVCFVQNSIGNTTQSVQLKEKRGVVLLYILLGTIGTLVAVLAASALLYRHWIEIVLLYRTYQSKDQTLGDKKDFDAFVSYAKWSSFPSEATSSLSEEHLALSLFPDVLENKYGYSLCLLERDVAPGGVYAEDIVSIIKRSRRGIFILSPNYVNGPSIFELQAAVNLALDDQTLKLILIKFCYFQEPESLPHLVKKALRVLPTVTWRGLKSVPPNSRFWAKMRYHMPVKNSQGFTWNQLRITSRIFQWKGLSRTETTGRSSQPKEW
Put plainly: cell-based or functional assay.

B1: IL-2 polypeptide of SEQ ID NO: 300 (ligand)
chain: APTSSSTKKTQLQLEHLLLDLQ[Nle]ILNGINNYKNPKLTR[Nle]L[hSer][Yn3]KF[Ygp][Nle]PKKATELKHLQCLEEELKPLEEVL[hSer]LAQSKNFHLRPRDLISNINVIVLELKGSETTF[hSer]CEYADETATIVEFLNRWITFSQSIISTLT
modifications: ends and bridges not checked
notes: Synthetic modified IL-2
By Kd is commonly meant the equilibrium constant for the complex coming apart. For orientation: koff means a measure of how fast the partners let go of each other. Read a high koff as fast dissociation. As a reminder, the kon is the second-order rate constant of association. The low end stands for slow association, the high end for fast association. In experiment [1], B1 gave a Kd of 206 nM, a koff of 0.102 s⁻¹ and a kon of 493000 M⁻¹ s⁻¹. Also, in experiment [2], the “EC50, HEK-Blue IL2Rβγ reporter assay” value came to 0.004 nM.

B2: Bifunctional cytokine Composition 3 (IL-18 SEQ ID NO: 30, linker 006, IL-2 SEQ ID NO: 300) (other)
chain 1: YFGKLKSKLSIIRNLNDQVLFIDQGNRPLFEDMTDSDARDNAPRTIFIISMYADSQPRGMAVAISVKCEKISTLSAENKIISFKEMNPPDNIKDTKSDIIFFQRSVPGHDNKMQFESSSYEGYFLAAEKERDLFKLILKKEDELGDRSIMFTVQNED
chain 2: APTSSSTKKTQLQLEHLLLDLQ[Nle]ILNGINNYKNPKLTR[Nle]L[hSer][Yn3]KF[Ygp][Nle]PKKATELKHLQCLEEELKPLEEVL[hSer]LAQSKNFHLRPRDLISNINVIVLELKGSETTF[hSer]CEYADETATIVEFLNRWITFSQSIISTLT
modifications: linker I:68-II:42 via linker 006 (SulfoDBCO-PEG24-Maleimide) (inferred); ends not checked
notes: Two cytokines joined by a chemical (non-peptide) linker
In experiment [3], B2 came in with a Kd of 25 nM, a koff of 0.0405 s⁻¹ and a kon of 1.62e+06 M⁻¹ s⁻¹. Moreover, in experiment [1], the Kd stood at 151 nM, the koff is 0.0842 s⁻¹ and the kon came to 559000 M⁻¹ s⁻¹. Further, in experiment [4], the “EC50, HEK-Blue IL18R reporter assay” value was 0.1 pM. The “EC50, HEK-Blue IL2Rβγ reporter assay” value in experiment [2] was 0.007 nM.

B3: Bifunctional cytokine Composition 4 (IL-18 SEQ ID NO: 30, linker 004, IL-2 SEQ ID NO: 300) (other)
chain 1: YFGKLKSKLSIIRNLNDQVLFIDQGNRPLFEDMTDSDARDNAPRTIFIISMYADSQPRGMAVAISVKCEKISTLSAENKIISFKEMNPPDNIKDTKSDIIFFQRSVPGHDNKMQFESSSYEGYFLAAEKERDLFKLILKKEDELGDRSIMFTVQNED
chain 2: APTSSSTKKTQLQLEHLLLDLQ[Nle]ILNGINNYKNPKLTR[Nle]L[hSer][Yn3]KF[Ygp][Nle]PKKATELKHLQCLEEELKPLEEVL[hSer]LAQSKNFHLRPRDLISNINVIVLELKGSETTF[hSer]CEYADETATIVEFLNRWITFSQSIISTLT
modifications: linker I:68-II:42 via linker 004 (SulfoDBCO-Maleimide) (inferred); ends not checked
notes: as for B2
In experiment [3], B3 had a Kd of 66.4 nM, a koff of 0.0708 s⁻¹ and a kon of 1.07e+06 M⁻¹ s⁻¹. In experiment [1], this molecule gave a Kd of 148 nM, a koff of 0.0863 s⁻¹ and a kon of 585000 M⁻¹ s⁻¹. In addition, the “EC50, HEK-Blue IL18R reporter assay” value in experiment [4] is 1.48 pM. In addition, the “EC50, HEK-Blue IL2Rβγ reporter assay” value in experiment [2] is 0.05 nM.

B4: IL-18 polypeptide of SEQ ID NO: 30 (E6K, V11I, C38A, K53A, T63A, C76A, C127A) (ligand)
chain: YFGKLKSKLSIIRNLNDQVLFIDQGNRPLFEDMTDSDARDNAPRTIFIISMYADSQPRGMAVAISVKCEKISTLSAENKIISFKEMNPPDNIKDTKSDIIFFQRSVPGHDNKMQFESSSYEGYFLAAEKERDLFKLILKKEDELGDRSIMFTVQNED
notes: also called C086
On to B4, for which, in experiment [3], the Kd amounted to 26.1 nM, the koff turned out to be 0.0567 s⁻¹ and the kon came out at 2.17e+06 M⁻¹ s⁻¹. Further, in experiment [4], the “EC50, HEK-Blue IL18R reporter assay” value is 0.067 pM.
